The values below come from patent EP0672680A1.

pIC50: −log10 of the molar value.

The target of assay [1] is bovine lung-derived ANP receptor (bovine). Description: competition radioligand binding: displacement of 125I-rat ANP from bovine lung membrane fraction, filter assay. Background: Displacement assays read how much labelled ligand stays bound in the presence of the test substance.
Assay [2] has as its target BK receptor derived from guinea pig ilea (guinea pig). The assay can be described thus: competition radioligand binding: inhibition of 3H-BK (200 pM) binding to guinea pig ileum membrane fraction; test compound at 10^-7 M.
For assay [3] the target is unchanged. Description: competition radioligand binding: inhibition of 3H-BK (200 pM) binding to guinea pig ileum membrane fraction; test compound at 10^-8 M.

Sequence of bovine lung-derived ANP receptor (bovine) (P10730 42-537): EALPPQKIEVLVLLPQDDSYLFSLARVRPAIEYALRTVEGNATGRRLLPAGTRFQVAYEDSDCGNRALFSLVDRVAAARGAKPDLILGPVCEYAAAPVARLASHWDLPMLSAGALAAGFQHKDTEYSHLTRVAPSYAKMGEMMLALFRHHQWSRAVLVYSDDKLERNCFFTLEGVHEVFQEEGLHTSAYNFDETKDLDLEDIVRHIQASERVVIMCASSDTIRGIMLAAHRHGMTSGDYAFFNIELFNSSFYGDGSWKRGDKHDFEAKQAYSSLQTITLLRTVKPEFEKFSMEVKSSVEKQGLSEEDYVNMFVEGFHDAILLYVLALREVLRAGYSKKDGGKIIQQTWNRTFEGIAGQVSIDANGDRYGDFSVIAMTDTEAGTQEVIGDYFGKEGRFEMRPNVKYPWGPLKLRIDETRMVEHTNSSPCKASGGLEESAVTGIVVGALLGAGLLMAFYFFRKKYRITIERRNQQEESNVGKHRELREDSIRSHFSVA
Sequence of BK receptor derived from guinea pig ilea (guinea pig) (O70526 whole entry): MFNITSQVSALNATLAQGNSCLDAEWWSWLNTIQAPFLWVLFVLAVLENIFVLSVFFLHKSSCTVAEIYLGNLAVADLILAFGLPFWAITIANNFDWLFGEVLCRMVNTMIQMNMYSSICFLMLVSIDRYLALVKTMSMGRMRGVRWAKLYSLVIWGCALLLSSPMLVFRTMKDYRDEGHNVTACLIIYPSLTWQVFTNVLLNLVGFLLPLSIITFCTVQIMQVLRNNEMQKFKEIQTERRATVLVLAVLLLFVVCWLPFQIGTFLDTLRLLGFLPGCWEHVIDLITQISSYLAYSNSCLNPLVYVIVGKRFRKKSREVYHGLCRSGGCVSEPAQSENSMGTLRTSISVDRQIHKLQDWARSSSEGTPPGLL

Regarding “compound (g) (H-Phe-Gly-Gly-Arg-Ile-Asp-Arg-Ile-NH2) (peptide)”, the pIC50 in assay [1] was 8.46.
Consider “compound (h) (H-Ala-Phe-Gly-Gly-Arg-Ile-Asp-Arg-Ile-Gly-Ala-Ala-NH2) (peptide)”, for which the negative-log IC50 (pIC50) in assay [1] is 8.60.
On the same count and under the same terms, the result for “compound (k) (H-Phe-Gly-Gly-Arg-(N-Me)Ile-Asp-Arg-Ile-NH2) (peptide)” reads 7.68.
Turning to “compound (m) (H-D-Arg-Arg-Pro-Hyp-Gly-Phe-Ser-D-Phe-Leu-Arg-OH) (peptide)”, the figures for the Percentage inhibition (%) in assay [2] and in assay [3] were 68% and 20%, respectively.

One may read the pIC50 as the negative decadic logarithm of the IC50, by convention in mol/L. A low value points to a high IC50.
